# Earlier results, collected in PMC9133541.
# Target: ExoS peptide (Pseudomonas aeruginosa) (UniProt G3XDA1)
# Experiment: ITC
# Sequence of UniProt G3XDA1 (G3XDA1 whole entry): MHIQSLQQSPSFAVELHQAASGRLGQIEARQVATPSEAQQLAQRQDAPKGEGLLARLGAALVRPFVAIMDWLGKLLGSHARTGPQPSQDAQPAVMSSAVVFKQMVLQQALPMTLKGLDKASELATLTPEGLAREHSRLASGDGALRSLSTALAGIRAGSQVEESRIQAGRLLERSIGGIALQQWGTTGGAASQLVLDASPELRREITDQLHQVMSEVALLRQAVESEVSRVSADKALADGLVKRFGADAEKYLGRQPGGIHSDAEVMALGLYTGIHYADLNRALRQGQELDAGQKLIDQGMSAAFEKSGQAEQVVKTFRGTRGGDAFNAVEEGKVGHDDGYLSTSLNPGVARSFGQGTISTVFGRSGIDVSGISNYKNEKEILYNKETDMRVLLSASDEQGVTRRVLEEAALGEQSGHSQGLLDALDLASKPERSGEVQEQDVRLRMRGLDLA
substance,measurement,value
14-3-3 sigma (from UniProt P31947),Kd,45.6 µM
